From patent publication US20110039257A1

Biological target: Akt1/PKB alpha recombinant enzyme (Upstate Biotechnology)
Assay: cell-based or functional assay

Sequence of Akt1/PKB alpha recombinant enzyme (Upstate Biotechnology) (P31749 whole entry): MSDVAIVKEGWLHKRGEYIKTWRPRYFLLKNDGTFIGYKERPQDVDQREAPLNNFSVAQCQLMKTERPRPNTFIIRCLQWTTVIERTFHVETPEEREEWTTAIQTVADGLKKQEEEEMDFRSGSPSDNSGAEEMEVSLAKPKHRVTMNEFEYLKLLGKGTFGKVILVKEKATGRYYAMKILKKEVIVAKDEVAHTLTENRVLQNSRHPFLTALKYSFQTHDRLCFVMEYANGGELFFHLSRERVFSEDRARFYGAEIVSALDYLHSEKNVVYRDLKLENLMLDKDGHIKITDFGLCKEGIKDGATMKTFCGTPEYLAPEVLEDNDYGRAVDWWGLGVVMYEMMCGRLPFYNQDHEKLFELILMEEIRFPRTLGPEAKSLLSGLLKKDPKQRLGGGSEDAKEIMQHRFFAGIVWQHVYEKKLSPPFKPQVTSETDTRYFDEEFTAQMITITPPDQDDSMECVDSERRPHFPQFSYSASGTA

B1: CPM firefly luciferase serine/threonine kinase biosensor, construct pBFB340: Met-(Luc2.0 A-544)-(linker X)-…-(…)-(Rad53p FHA2 domain)-(linker Y)-(Luc2.0 4-B) (protein, part only; not given: luciferase fragments and linkers, part only)
chain, part: RKRDRLGTLGIGGSSGGGSGGGGSGGGNGRFLTLKPLPDSIIQESLEIQQGVNPFFIGRSEDCNCKIEDNRLSRVHCFIFKKRHAVGKSMYESPAQGLDDIWYCHTGTNVSYLNNNRMIQGTKFLLQDGDEIKIIWDKNNKFVIGFKVEINDTTGLFNEGLGMLQEQRVVLKQTAEEKDLVKKL
  decrease in luminescence (luciferase activity) with versus without Akt1/PKB: 50%
